# Results reported in patent US20020019519.
# Biological target: myelin basic protein (MBP) (Sigma)
# Sequence (P02687 whole entry): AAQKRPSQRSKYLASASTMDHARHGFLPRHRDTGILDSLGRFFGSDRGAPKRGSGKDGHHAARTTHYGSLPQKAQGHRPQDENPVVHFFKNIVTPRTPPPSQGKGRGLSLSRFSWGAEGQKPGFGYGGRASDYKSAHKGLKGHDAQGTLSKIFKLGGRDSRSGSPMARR
row,Protein,"kinase activity (incorporation of phosphate in MBP, 32P, P81 paper, scintillation counting)"
1,"His and myc epitope tagged human NAK amino acids 1-529 (from pcDNA3.1.NAK(1-529)-Hm, expressed in HEK293 cells) (protein) MASDSPARSLDEIDLSALRDPAGIFELVELVGNGTYGQVYKGRHVKTGQLAAIKVMDVTGDEEEEIKQEINMLKKYSHHRNIATYYGAFIKKNPPGMDDQLWLVMEFCGAGSVTDLIKNTKGNTLKEEWIAYICREILRGLSHLHQHKVIHRDIKGQNVLLTENAEVKLVDFGVSAQLDRTVGRRNTFIGTPYWMAPEVIACDENPDATYDFKSDLWSLGITAIEMAEGAPPLCDMHPMRALFLIPRNPAPRLKSKKWSKKFQSFIESCLVKNHSQRPATEQLMKHPFIRDQPNERQVRIQLKDHIDRTKKKRGEKDETEYEYSGSEEEEEENDSGEPSSILNLPGESTLRRDFLRLQLANKERSEALRRQQLEQQQRENEEHKRQLLAERQKRIEEQKEQRRRLEEQQRREKELRKQQEREQRRHYEEQMRREEERRRAEHEQEYIRRQLEEEQRQLEILQQQLLHEQALLLEYKRKQLEEQRQAERLQRQLKQERDYLVSLQHQRQEQRPVEKKPLYHYKEGMSPSE",display increased kinase activity (FIG. 4b)
2,"recombinant full-length human NAK protein with hexa His and myc epitope tags (from pcDNA3.1.NAK-Hm, expressed in HEK293 cells) (protein) MASDSPARSLDEIDLSALRDPAGIFELVELVGNGTYGQVYKGRHVKTGQLAAIKVMDVTGDEEEEIKQEINMLKKYSHHRNIATYYGAFIKKNPPGMDDQLWLVMEFCGAGSVTDLIKNTKGNTLKEEWIAYICREILRGLSHLHQHKVIHRDIKGQNVLLTENAEVKLVDFGVSAQLDRTVGRRNTFIGTPYWMAPEVIACDENPDATYDFKSDLWSLGITAIEMAEGAPPLCDMHPMRALFLIPRNPAPRLKSKKWSKKFQSFIESCLVKNHSQRPATEQLMKHPFIRDQPNERQVRIQLKDHIDRTKKKRGEKDETEYEYSGSEEEEEENDSGEPSSILNLPGESTLRRDFLRLQLANKERSEALRRQQLEQQQRENEEHKRQLLAERQKRIEEQKEQRRRLEEQQRREKELRKQQEREQRRHYEEQMRREEERRRAEHEQEYIRRQLEEEQRQLEILQQQLLHEQALLLEYKRKQLEEQRQAERLQRQLKQERDYLVSLQHQRQEQRPVEKKPLYHYKEGMSPSEKPAWAKEVEERSRLNRQSSPAMPHKVANRISDPNLPPRSESFSISGVQPARTPPMLRPVDPQIPHLVAVKSQGPALTASQSVHEQPTKGLSGFQEALNVTSHRVEMPRQNSDPTSENPPLPTRIEKFDRSSWLRQEEDIPPKVPQRTTSISPALARKNSPGNGSALGPRLGSQPIRASNPDLRRTEPILESPLQRTSSGSSSSSSTPSSQPSSQGGSQPGSQAGSSERTRVRANSKSEGSPVLPHEPAKVKPEESRDITRPSRPASYKKAIDEDLTALAKELRELRIEETNRPMKKVTDYSSSSEESESSEEEEEDGESETHDGTVAVSDIPRLIPTGAPGSNEQYNVGMVGTHGLETSHADSFSGSISREGTLMIRETSGEKKRSGHSDSNGFAGHINLPDLVQQSHSPAGTPTEGLGRVSTHSQEMDSGTEYGMGSSTKASFTPFVDPRVYQTSPTDEDEEDEESSAAALFTSELLRQEQAKLNEARKISVVNVNPTNIRPHSDTPEIRKYKKRFNSEILCAALWGVNLLVGTENGLMLLDRSGQGKVYNLINRRRFQQMDVLEGLNVLVTISGKKNKLRVYYLSWLRNRILHNDPEVEKKQGWITVGDLEGCIHYKVVKYERIKFLVIALKNAVEIYAWAPKPYHKFMAFKSFADLQHKPLLVDLTVEEGQRLKVIFGSHTGFHVIDVDSGNSYDIYIPSHIQGNITPHAIVILPKTDGMEMLVCYEDEGVYVNTYGRITKDVVLQWGEMPTSVAYIHSNQIMGWGEKAIEIRSVETGHLDGVFMHKRAQRLKFLCERNDKVFFASVRSGGSSQVFFMTLNRNSMMNW",Recombinant NAK protein displays enzymatic (kinase) activity
3,"His and myc epitope tagged human NAK amino acids 1-337 (from pcDNA3.1.NAK(1-337)-Hm, expressed in HEK293 cells) (protein) MASDSPARSLDEIDLSALRDPAGIFELVELVGNGTYGQVYKGRHVKTGQLAAIKVMDVTGDEEEEIKQEINMLKKYSHHRNIATYYGAFIKKNPPGMDDQLWLVMEFCGAGSVTDLIKNTKGNTLKEEWIAYICREILRGLSHLHQHKVIHRDIKGQNVLLTENAEVKLVDFGVSAQLDRTVGRRNTFIGTPYWMAPEVIACDENPDATYDFKSDLWSLGITAIEMAEGAPPLCDMHPMRALFLIPRNPAPRLKSKKWSKKFQSFIESCLVKNHSQRPATEQLMKHPFIRDQPNERQVRIQLKDHIDRTKKKRGEKDETEYEYSGSEEEEEENDSGE",display increased kinase activity (FIG. 4b)
